The target of assay [1] is T1, m^solCgi-58 (mouse, UniProt Q9DBL9 2-351, S239E).
T1 construct: mouse Cgi-58, Lys-2–Asp-351, with S239E; preceded by a TEV protease cleavage site and cleaved by TEV; used for NMR experiments only; also called mCgi-58^S239E; cgi-58_S239E variant with increased solubility; source: E. coli BL21(DE3), co-expressed with the chaperone Tig, purified (His-Trap, TEV cleavage, Superdex 200); not shown: His tag, N-terminal, cleaved; SUMO, N-terminal, cleaved
T1 sequence (looked up): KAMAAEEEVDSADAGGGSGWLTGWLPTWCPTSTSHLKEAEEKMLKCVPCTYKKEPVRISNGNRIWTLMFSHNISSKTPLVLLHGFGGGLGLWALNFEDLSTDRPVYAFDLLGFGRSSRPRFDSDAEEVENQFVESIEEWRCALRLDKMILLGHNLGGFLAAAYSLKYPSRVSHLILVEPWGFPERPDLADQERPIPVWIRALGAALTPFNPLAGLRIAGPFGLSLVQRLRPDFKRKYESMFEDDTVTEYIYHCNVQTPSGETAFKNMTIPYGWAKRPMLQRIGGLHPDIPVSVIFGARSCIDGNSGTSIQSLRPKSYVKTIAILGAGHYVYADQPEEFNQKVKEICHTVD
Put plainly: NMR titration; 1H-15N HSQC of 50 μM 15N labeled A-Fabp with 0, 10, 25, 50, 100 and 200 μM m^solCgi-58; 15 mM Na2HPO4/KH2PO4, pH 7.0, 300 mM NaCl, 1 mM DTT, 1 mM EDTA; 298 K. The following applies: both partners purified.

Assay [2] deals with T2, Gst-Cgi-58 (mouse, UniProt Q9DBL9 1-351, Sulfo-SBED cross-linker covalently linked (label transfer); fluorescent label NT-495 by NHS coupling (microscale thermophoresis)).
T2 construct: comparative gene identification-58 (Cgi-58), mouse; also called Gst-tagged Cgi-58; mouse Gst-Cgi-58
T2 sequence (looked up): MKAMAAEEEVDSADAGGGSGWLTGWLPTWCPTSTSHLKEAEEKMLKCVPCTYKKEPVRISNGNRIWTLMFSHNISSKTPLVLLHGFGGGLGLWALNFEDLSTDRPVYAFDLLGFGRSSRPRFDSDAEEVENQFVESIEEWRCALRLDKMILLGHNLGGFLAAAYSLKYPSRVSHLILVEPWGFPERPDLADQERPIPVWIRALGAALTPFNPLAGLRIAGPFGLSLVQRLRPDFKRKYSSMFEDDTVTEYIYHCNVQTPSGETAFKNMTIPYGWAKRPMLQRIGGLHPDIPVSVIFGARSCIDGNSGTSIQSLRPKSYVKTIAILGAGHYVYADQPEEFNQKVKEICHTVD
Put plainly: MST; Gst-tagged Cgi-58 labelled with NT-495 (NHS coupling) at constant amount; unlabeled Strep-tagged A-Fabp 8 nM to 250 μM; 100 mM Tris, pH 8.0, 150 mM NaCl, 1 mM EDTA, 0.05% Tween 20; Monolith NT.115, duplicate. The conditions noted are these: both partners purified.

B1: Strep-tagged A-Fabp (natural protein, human, UniProt P15090 1-132, looked up)
chain: MCDAFVGTWKLVSSENFDDYMKEVGVGFATRKVAGMAKPNMIISVNGDVITIKSESTFKNTEISFILGQEFDEVTADDRKVKSTITLDGGVLVHVQKWDGKSTTIKRKREDDKLVVECVMKGVTSTRVYERA
modifications: 15N (and 13C) labelled in the NMR experiments
notes: residue numbers start with methionine as the first amino acid; vector pASK-IBA5plus; also called Strep-A-Fabp; source: E. coli BL21(DE3), purified (Strep-Tactin)
With B1, the binding result in assay [1] is on record as “binds”. In addition, in assay [2], the dissociation constant (Kd) (usually the constant that tells how readily two partners part at equilibrium) was 192 ± 22 µM.

The values are drawn from publication PMC4513104, “Fatty Acid-binding Proteins Interact with Comparative Gene Identification-58 Linking Lipolysis with Lipid Ligand Shuttling*” (The Journal of Biological Chemistry, 2015).
